Assay results from US20220363763A1 (ABL BIO, published 2022).
Read-outs that look alike come from different tables or passages of the source.

Key:
human PD-L1-Fc protein [1] = molecular target: T1, human PD-L1-Fc protein (human, UniProt Q9NZQ7 19-239); assay: ELISA on coated human PD-L1-Fc; EC50 table has no unit, x axis Ab(nM)
T1 construct: Coated on ELISA plates; also called huPD-L1; not shown: Fc part
Experimental: (§1) To evaluate the antigen binding activity, the humanized antibodies were subjected to ELISA test. Briefly, microtiter plates were coated with human PD-L1-Fc protein at 0.1 μg/ml in PBS, 100 μl/well at 4° C. overnight, then blocked with 100 μl/well of 5% BSA. Five-fold dilutions of humanized antibodies starting from 10 μg/ml were added to each well and incubated for 1-2 hours at RT. The plates were washed with PBS/Tween and then incubate with […] antibody conjugated with Horse Radish Peroxidase (HRP) for 1 hour at RT. After washing, the plates were developed with TMB substrate and analyzed by spectrophotometer at OD 450-630 nm.

[2] = molecular target: T2, human PD-L1 expressed on mammalian cells (human, UniProt Q9NZQ7 19-290); assay: flow cytometry (MFI) on PDL1-CHOK1 cells; EC50 table has no unit, x axis Antibodies(nM)
T2 construct: whole, on cells; also called PDL1-CHOK1 cells; PDL1-Raji cells
Experimental: (§2) To evaluate the antigen binding property, the humanized antibodies were analyzed for its binding to mammalian expressed PD-L1 by FACS. Briefly, PDL1-CHOK1 cells were firstly incubated with 5-fold serious diluted humanized antibodies starting at 2 μg/ml at RT for 1 hour. After wash by FACS buffer (PBS with 2% FBS), the alexa 488-anti-human IgG antibody was added to each well and incubated at RT for 1 hour. The MFI of Alexa 488 was evaluated by FACSAriaIII.

[3] = molecular target: T3, human PD-L1 (construct not stated) (human, UniProt Q9NZQ7 19-239, limits assumed); assay: BLI Octet Red 96, affinity ranking
T3 construct: also called B7-H1 (PD-L1); PD-L1 protein
Excerpt: To explore the binding kinetics of the humanized antibody, this example performed the affinity ranking by using Octet Red 96.

[4] = molecular target: T2, human PD-L1 expressed on mammalian cells; assay: flow cytometry (MFI) on PDL1-CHOK1 cells; EC50 table has no unit, x axis Antibodies(nM); remark: listed apart in the source
Experimental: as §2

[5] = molecular target: T2, human PD-L1 expressed on mammalian cells; assay: FACS receptor blocking on PDL1-CHOK1 cells, competitor Bio-PD1 (30 µg/ml)
Experimental: To evaluate the blocking effect of humanized antibodies on human PD-L1 expressed on mammalian cells to bind to its receptor PD-1, the FACS-based receptor blocking assay was employed. Briefly, PDL1-CHOK1 cells were firstly incubated with 3-fold serious diluted HL1210-3 mouse mAb starting at 20 μg/ml at RT for 1 hour. After wash by FACS buffer (PBS with 2% FBS), the biotin-labeled huPD-1 were added to each well and incubated at RT for 1 hour. Then, the Streptavidin-PE was added to each well for 0.5 hour post twice wash with FACS buffer. The mean florescence intensity (MFI) of PE was evaluated by FACSAriaIII.

human PD-L1-Fc protein [6] = molecular target: T1, human PD-L1-Fc protein; assay: ELISA on coated human PD-L1-Fc; EC50 table has no unit, x axis Ab(nM); remark: listed apart in the source
Experimental: as §1

[7] = molecular target: T4, human PD-L1-his taq protein (human, UniProt Q9NZQ7 19-239, limits assumed); assay: SPR Biacore T200, antibody captured, PD-L1-his injected
T4 construct: also called recombinant PD-L1 protein; recombinant human PD-L1; not shown: his tag
Experimental: The binding of the humanized antibodies to recombinant PD-L1 protein (human PD-L1-his taq) was tested by BIACORE™ using a capture method. The HL1210-3 mouse mAb were captured using anti-mouse Fc antibody coated on a CM5 chip. A series dilution of human PD-L1-his taq protein was injected over captured antibody for 3 mins at a flow rate of […]. The antigen was allowed to dissociate for 900 s. All the experiments were carried out on a Biacore T200.

human PD-L1-Fc protein [8] = molecular target: T1, human PD-L1-Fc protein; assay: ELISA on coated human PD-L1-Fc; EC50 table has no unit, x axis Ab(nM); remark: listed apart in the source
Experimental: as §1

[9] = molecular target: T2, human PD-L1 expressed on mammalian cells; assay: flow cytometry (MFI) on PDL1-CHOK1 cells; EC50 table has no unit, x axis Antibodies(nM); remark: listed apart in the source
Experimental: as §2

T2 sequence (Q9NZQ7 19-290): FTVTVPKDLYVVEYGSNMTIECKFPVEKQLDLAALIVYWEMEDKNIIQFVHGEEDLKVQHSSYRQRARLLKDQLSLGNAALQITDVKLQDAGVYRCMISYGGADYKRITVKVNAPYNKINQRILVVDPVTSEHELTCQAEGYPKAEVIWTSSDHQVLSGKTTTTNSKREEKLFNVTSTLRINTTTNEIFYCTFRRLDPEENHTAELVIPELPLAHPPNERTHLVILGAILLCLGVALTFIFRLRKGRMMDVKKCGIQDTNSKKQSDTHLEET
T1 sequence (Q9NZQ7 19-239 limits assumed): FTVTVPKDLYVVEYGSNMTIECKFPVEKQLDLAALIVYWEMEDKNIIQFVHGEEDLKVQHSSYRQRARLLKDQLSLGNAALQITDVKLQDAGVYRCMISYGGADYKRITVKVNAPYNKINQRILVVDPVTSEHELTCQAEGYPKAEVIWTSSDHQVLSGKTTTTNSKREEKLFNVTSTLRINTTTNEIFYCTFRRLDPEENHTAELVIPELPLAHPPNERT
T3 sequence (Q9NZQ7 19-239 limits assumed): as above
T4 sequence (Q9NZQ7 19-239 limits assumed): as above

Row | Binder | EC50 (human PD-L1-Fc protein [1]) [nM] | EC50 [2] [nM] | Kd [3] [nM] | koff [3] [s⁻¹] | kon [3] [M⁻¹ s⁻¹] | EC50 [4] [nM] | TOP [5] | EC50 (human PD-L1-Fc protein [6]) [nM] | Kd [7] [nM] | koff [7] [s⁻¹] | kon [7] [M⁻¹ s⁻¹] | EC50 (human PD-L1-Fc protein [8]) [nM] | EC50 [9] [nM]
1 | Hu1210-1 (antibody, V domains shown, Hu1210 VH.1 x Vk.1) VH: EVQLVESGGGLVKPGGSLRLSCAASGFTFSSYDMSWVRQAPGKGLEWVSTISDGGGYIYYSDSVKGRFTISRDNAKNSLYLQMNSLRAEDTAVYYCAREFGKRYALDYWGQGTTVTVSS VL: DIQMTQSPSSLSASVGDRVTITCKASQDVTPAVAWYQQKPGKAPKLLIYSTSSRYTGVPSRFSGSGSGTDFTFTISSLQPEDIATYYCQQHYTTPLTFGQGTKLEIK | 0.167 | 2.31 | 4.25 | 0.000302 | 71000 | – | – | – | – | – | – | – | –
2 | Hu1210-17 (antibody, V domains shown, Hu1210 VH.4b x Vk.1; human gamma 1 / kappa constant domains) VH: EVQLVESGGGLVQPGGSLRLSCAASGFTFSSYDMSWVRQAPGKSLEWVATISDGGGYIYYSDSVKGRFTISRDNAKNSLYLQMNSLRDEDTAVYICAREFGKRYALDYWGQGTTVTVSS VL: DIQMTQSPSSLSASVGDRVTITCKASQDVTPAVAWYQQKPGKAPKLLIYSTSSRYTGVPSRFSGSGSGTDFTFTISSLQPEDIATYYCQQHYTTPLTFGQGTKLEIK | – | – | 2.2 | 0.00018 | 81700 | 1.23 | 80.9 | 0.208 | 0.193 | 2.13e-05 | 110000 | – | –
3 | Hu1210-4 (antibody, V domains shown, Hu1210 VH.2 x Vk.1; human gamma 1 / kappa constant domains) VH: EVQLVESGGGLVKPGGSLRLSCAASGFTFSSYDMSWIRQAPGKGLEWVSTISDGGGYIYYSDSVKGRFTISRDNAKNSLYLQMNSLRAEDTAVYYCAREFGKRYALDYWGQGTTVTVSS VL: DIQMTQSPSSLSASVGDRVTITCKASQDVTPAVAWYQQKPGKAPKLLIYSTSSRYTGVPSRFSGSGSGTDFTFTISSLQPEDIATYYCQQHYTTPLTFGQGTKLEIK | 0.184 | 2.12 | 7.68 | 0.000546 | 71200 | – | – | – | – | – | – | – | –
4 | Hu1210-5 (antibody, V domains shown, Hu1210 VH.2a x Vk.1; human gamma 1 / kappa constant domains) VH: EVQLVESGGGLVKPGGSLRLSCAASGFTFSSYDMSWIRQAPGKGLEWVATISDGGGYIYYSDSVKGRFTISRDNAKNSLYLQMNSLRAEDTAVYYCAREFGKRYALDYWGQGTTVTVSS VL: DIQMTQSPSSLSASVGDRVTITCKASQDVTPAVAWYQQKPGKAPKLLIYSTSSRYTGVPSRFSGSGSGTDFTFTISSLQPEDIATYYCQQHYTTPLTFGQGTKLEIK | 0.193 | 1.43 | 4.83 | 0.000383 | 79300 | – | – | – | – | – | – | – | –
5 | Hu1210-18 (antibody, V domains shown, Hu1210 VH.3 x Vk.1a; human gamma 1 / kappa constant domains) VH: EVQLLESGGGLVQPGGSLRLSCAASGFTFSSYDMSWVRQAPGKGLEWVSTISDGGGYIYYSDSVKGRFTISRDNSKNTLYLQMNSLRAEDTAVYYCAREFGKRYALDYWGQGTTVTVSS VL: DIQMTQSPSSLSASVGDRVTITCKASQDVTPAVAWYQQKPGKSPKLLIYSTSSRYTGVPSRFSGSGSGTDFTFTISSLQPEDIATYYCQQHYTTPLTFGQGTKLEIK | – | – | 4.5 | 0.000357 | 79200 | 1.8 | – | 0.195 | – | – | – | – | –
6 | Hu1210-21 (antibody, V domains shown, Hu1210 VH.4a x Vk.1a; human gamma 1 / kappa constant domains) VH: EVQLVESGGGLVQPGGSLRLSCAASGFTFSSYDMSWVRQAPGKGLEWVATISDGGGYIYYSDSVKGRFTISRDNAKNSLYLQMNSLRDEDTAVYYCAREFGKRYALDYWGQGTTVTVSS VL: DIQMTQSPSSLSASVGDRVTITCKASQDVTPAVAWYQQKPGKSPKLLIYSTSSRYTGVPSRFSGSGSGTDFTFTISSLQPEDIATYYCQQHYTTPLTFGQGTKLEIK | – | – | 3.12 | 0.000293 | 93900 | 1.29 | – | 0.192 | – | – | – | – | –
7 | Hu1210-2 (antibody, V domains shown, Hu1210 VH.1a x Vk.1; human gamma 1 / kappa constant domains) VH: EVQLVESGGGLVKPGGSLRLSCAASGFTFSSYDMSWVRQAPGKGLEWVATISDGGGYIYYSDSVKGRFTISRDNAKNSLYLQMNSLRAEDTAVYYCAREFGKRYALDYWGQGTTVTVSS VL: DIQMTQSPSSLSASVGDRVTITCKASQDVTPAVAWYQQKPGKAPKLLIYSTSSRYTGVPSRFSGSGSGTDFTFTISSLQPEDIATYYCQQHYTTPLTFGQGTKLEIK | 0.168 | 1.44 | 3.23 | 0.000251 | 77800 | – | – | – | – | – | – | – | –
8 | Hu1210-20 (antibody, V domains shown, Hu1210 VH.4 x Vk.1a; human gamma 1 / kappa constant domains) VH: EVQLVESGGGLVQPGGSLRLSCAASGFTFSSYDMSWVRQAPGKGLEWVSTISDGGGYIYYSDSVKGRFTISRDNAKNSLYLQMNSLRDEDTAVYYCAREFGKRYALDYWGQGTTVTVSS VL: DIQMTQSPSSLSASVGDRVTITCKASQDVTPAVAWYQQKPGKSPKLLIYSTSSRYTGVPSRFSGSGSGTDFTFTISSLQPEDIATYYCQQHYTTPLTFGQGTKLEIK | – | – | 4.51 | 0.0004 | 88700 | 1.73 | – | 0.185 | – | – | – | – | –
9 | Hu1210-15 (antibody, V domains shown, Hu1210 VH.4 x Vk.1; human gamma 1 / kappa constant domains) VH: EVQLVESGGGLVQPGGSLRLSCAASGFTFSSYDMSWVRQAPGKGLEWVSTISDGGGYIYYSDSVKGRFTISRDNAKNSLYLQMNSLRDEDTAVYYCAREFGKRYALDYWGQGTTVTVSS VL: DIQMTQSPSSLSASVGDRVTITCKASQDVTPAVAWYQQKPGKAPKLLIYSTSSRYTGVPSRFSGSGSGTDFTFTISSLQPEDIATYYCQQHYTTPLTFGQGTKLEIK | – | – | 4.45 | 0.00035 | 78700 | – | – | – | – | – | – | 0.187 | 2.04
10 | Hu1210-19 (antibody, V domains shown, Hu1210 VH.3a x Vk.1a; human gamma 1 / kappa constant domains) VH: EVQLLESGGGLVQPGGSLRLSCAASGFTFSSYDMSWVRQAPGKSLEWVATISDGGGYIYYSDSVKGRFTISRDNSKNTLYLQMNSLRAEDTAVYICAREFGKRYALDYWGQGTTVTVSS VL: DIQMTQSPSSLSASVGDRVTITCKASQDVTPAVAWYQQKPGKSPKLLIYSTSSRYTGVPSRFSGSGSGTDFTFTISSLQPEDIATYYCQQHYTTPLTFGQGTKLEIK | – | – | 2.5 | 0.000225 | 90300 | 1.01 | 87.5 | 0.137 | – | – | – | – | –
11 | Hu1210-13 (antibody, V domains shown, Hu1210 VH.3 x Vk.1; human gamma 1 / kappa constant domains) VH: EVQLLESGGGLVQPGGSLRLSCAASGFTFSSYDMSWVRQAPGKGLEWVSTISDGGGYIYYSDSVKGRFTISRDNSKNTLYLQMNSLRAEDTAVYYCAREFGKRYALDYWGQGTTVTVSS VL: DIQMTQSPSSLSASVGDRVTITCKASQDVTPAVAWYQQKPGKAPKLLIYSTSSRYTGVPSRFSGSGSGTDFTFTISSLQPEDIATYYCQQHYTTPLTFGQGTKLEIK | – | – | 4.36 | 0.000366 | 83800 | – | – | – | – | – | – | 0.187 | 1.57
12 | Hu1210-3 (antibody, V domains shown, Hu1210 VH.1b x Vk.1; human gamma 1 / kappa constant domains) VH: EVQLVESGGGLVKPGGSLRLSCAASGFTFSSYDMSWVRQAPGKSLEWVATISDGGGYIYYSDSVKGRFTISRDNAKNSLYLQMNSLRAEDTAVYICAREFGKRYALDYWGQGTTVTVSS VL: DIQMTQSPSSLSASVGDRVTITCKASQDVTPAVAWYQQKPGKAPKLLIYSTSSRYTGVPSRFSGSGSGTDFTFTISSLQPEDIATYYCQQHYTTPLTFGQGTKLEIK | 0.186 | 1.37 | 2.64 | 0.000228 | 86200 | – | 84.3 | – | – | – | – | – | –
